# Results as given in article PMC4737156, “Taking a molecular motor for a spin: helicase mechanism studied by spin labeling and PELDOR”.
# Residue numbers refer to the chain shown, from its start.
# T1: PcrA E74C/Q506C-R1 (1A-2B) (Bacillus stearothermophilus, UniProt P56255 1-724, E74C;Q506C)
# T1 sequence: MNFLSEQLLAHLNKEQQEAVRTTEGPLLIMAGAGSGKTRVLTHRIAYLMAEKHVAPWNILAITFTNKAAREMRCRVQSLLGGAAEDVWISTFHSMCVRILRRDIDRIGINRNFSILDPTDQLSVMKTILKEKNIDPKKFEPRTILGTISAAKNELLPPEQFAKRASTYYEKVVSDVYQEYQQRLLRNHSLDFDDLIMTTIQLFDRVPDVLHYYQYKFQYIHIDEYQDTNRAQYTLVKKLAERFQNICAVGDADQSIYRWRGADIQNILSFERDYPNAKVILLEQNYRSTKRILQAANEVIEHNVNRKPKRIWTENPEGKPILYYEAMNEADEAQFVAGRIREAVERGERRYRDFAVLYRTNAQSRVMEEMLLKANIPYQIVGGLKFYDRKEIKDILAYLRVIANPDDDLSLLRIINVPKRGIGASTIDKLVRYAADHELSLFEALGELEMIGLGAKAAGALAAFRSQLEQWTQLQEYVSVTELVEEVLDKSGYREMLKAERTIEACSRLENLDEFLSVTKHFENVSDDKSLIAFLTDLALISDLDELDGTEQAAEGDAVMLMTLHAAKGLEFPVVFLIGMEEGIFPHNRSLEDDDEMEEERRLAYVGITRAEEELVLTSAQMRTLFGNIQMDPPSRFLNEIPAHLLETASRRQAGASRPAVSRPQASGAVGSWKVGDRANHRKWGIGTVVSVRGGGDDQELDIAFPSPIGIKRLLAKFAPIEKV
# T2: PcrA V344C/Q506C-R1 (2A-2B) (Bacillus stearothermophilus, UniProt P56255 1-724, V344C;Q506C)
# T2 sequence: T1 sequence with C74E, V344C
# Legend:
# [1] = molecular target: T1, PcrA E74C/Q506C-R1 (1A-2B); test: PELDOR (DEER) EPR; no nucleotide; distances 35 and 45 A (0.5:1); PELDOR in D2O buffer (composition, pH not given in material): PcrA 70 uM, DNA 150 uM, nucleotide 10-fold excess, 1 mM MgCl2, 5% EG-d6; XPD 40-50 uM, DNA about 2x, nucleotide/MgCl2 1 mM; settings: protein: recombinant; tags: none stated; hairpin, 11 bp duplex, 3' overhang 10 nt
# [2] = molecular target: T2, PcrA V344C/Q506C-R1 (2A-2B); test: PELDOR (DEER) EPR; no nucleotide; distances 37.3 and 44.1 A (1:0.7); PELDOR in D2O buffer (composition, pH not given in material): PcrA 70 uM, DNA 150 uM, nucleotide 10-fold excess, 1 mM MgCl2, 5% EG-d6; XPD 40-50 uM, DNA about 2x, nucleotide/MgCl2 1 mM; settings: protein: recombinant; tags: none stated; hairpin, 11 bp duplex, 3' overhang 10 nt
binder,measurement,setting,value
CGAGCACTGCTTTAGCAGTGCTCGTTTTTTTTTT (structured_DNA) [hairpin with 3'-(dT)10 overhang],binding result,[1],binds
same,binding result,[2],binds
